Experimental data taken from US20220119534A1 (DRAGONFLY THERAPEUTICS, published 2022).
Several values for one entry are separate records, joined by “and”; a condition that tells them apart may be missing. Identical values can stand only once. Values belong to the binder of their own block, whether it stands above or below them.

Tests used:
Human CD32a H131 = target: T1, Human CD32a H131 (human, UniProt P12318 36-218, limits assumed, biotinylated); assay: SPR, steady state fit
T1 construct: Bought recombinant receptor; also called hFcγRIIa H131
T1 sequence (looked up): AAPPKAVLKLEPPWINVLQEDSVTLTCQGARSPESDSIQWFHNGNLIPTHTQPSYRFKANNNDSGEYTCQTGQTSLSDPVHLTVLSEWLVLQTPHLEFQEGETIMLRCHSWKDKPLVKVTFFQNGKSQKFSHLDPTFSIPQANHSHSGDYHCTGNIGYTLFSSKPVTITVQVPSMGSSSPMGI

Human CD32a R131 = target: T2, Human CD32a R131 (human, UniProt P12318 36-218, limits assumed, biotinylated); assay: SPR, steady state fit
T2 construct: Bought recombinant receptor; also called hFcγRIIa R131
T2 sequence (looked up): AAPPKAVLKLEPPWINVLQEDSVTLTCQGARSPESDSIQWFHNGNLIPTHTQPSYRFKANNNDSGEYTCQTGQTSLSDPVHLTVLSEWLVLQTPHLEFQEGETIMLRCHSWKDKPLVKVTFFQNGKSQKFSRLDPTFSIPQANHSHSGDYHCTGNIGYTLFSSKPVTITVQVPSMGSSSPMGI

Human CD16a V158 [1] = target: T3, Human CD16a V158 (human, UniProt P08637 17-208, biotinylated); assay: SPR; sample after 4 weeks at 40 C in HST pH 6.0
T3 construct: Bought recombinant receptor; also called hCD16a (V158); hFcγRIIIa V158
T3 sequence (P08637 17-208 F176V limits assumed): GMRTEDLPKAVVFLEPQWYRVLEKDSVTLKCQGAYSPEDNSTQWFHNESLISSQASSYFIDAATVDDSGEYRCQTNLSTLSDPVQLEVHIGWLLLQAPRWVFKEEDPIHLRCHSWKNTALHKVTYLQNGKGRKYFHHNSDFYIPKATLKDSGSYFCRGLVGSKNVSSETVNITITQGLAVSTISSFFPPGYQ

Human CLEC12A-His [2] = target: T4, Human CLEC12A-His (human, UniProt Q5QGZ9 65-265); assay: SPR; sample after 4 weeks at 40 C in HST pH 6.0
T4 construct: Recombinant soluble protein made in house; also called hCLEC12A-His; hCLEC12A; not shown: His tag
T4 sequence: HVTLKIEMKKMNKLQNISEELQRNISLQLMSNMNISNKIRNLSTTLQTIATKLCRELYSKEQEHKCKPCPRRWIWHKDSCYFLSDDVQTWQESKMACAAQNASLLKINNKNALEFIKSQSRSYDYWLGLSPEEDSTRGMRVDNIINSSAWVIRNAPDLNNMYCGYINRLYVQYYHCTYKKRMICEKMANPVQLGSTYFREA

mFc-hNKG2D [3] = target: T5, mFc-hNKG2D (human, UniProt P26718 73-216); assay: SPR; sample after 4 weeks at 40 C in HST pH 6.0
T5 construct: extracellular domain; Recombinant mFc-tagged NKG2D dimer, made in house; also called human NKG2D; not shown: mouse Fc tag
T5 sequence (looked up): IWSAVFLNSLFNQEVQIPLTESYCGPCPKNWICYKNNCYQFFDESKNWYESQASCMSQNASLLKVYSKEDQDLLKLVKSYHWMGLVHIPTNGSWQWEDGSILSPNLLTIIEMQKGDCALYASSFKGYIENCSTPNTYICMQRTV

Human CD16a V158 [4] = target: T3, Human CD16a V158; assay: SPR; sample after low pH hold
Human CLEC12A-His [5] = target: T4, Human CLEC12A-His; assay: SPR; sample after low pH hold
mFc-hNKG2D [6] = target: T5, mFc-hNKG2D; assay: SPR; sample after low pH hold
[7] = target: T6, recombinant human CLEC12A-His (human, UniProt Q5QGZ9 65-265); assay: SPR 37C
T6 construct: also called hCLEC12A-His; hCLEC12A
T6 sequence: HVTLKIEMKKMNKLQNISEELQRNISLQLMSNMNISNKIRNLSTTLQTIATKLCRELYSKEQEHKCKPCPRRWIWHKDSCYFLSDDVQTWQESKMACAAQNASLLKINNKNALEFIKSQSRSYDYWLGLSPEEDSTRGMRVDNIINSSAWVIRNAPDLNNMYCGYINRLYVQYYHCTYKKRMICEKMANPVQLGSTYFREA

recombinant human FcRn = target: T7, recombinant human FcRn (human, UniProt P55899 24-297; P61769 21-119); assay: SPR 25C, pH 6.0, steady state, average; pH 6.0; average of four replicates
T7 construct: also called hFcRn

recombinant human CD32b = target: T8, recombinant human CD32b (human, UniProt P31994 46-217, limits assumed, biotinylated); assay: SPR 25C, steady state, average
T8 construct: also called FcγRIIb
T8 sequence (looked up): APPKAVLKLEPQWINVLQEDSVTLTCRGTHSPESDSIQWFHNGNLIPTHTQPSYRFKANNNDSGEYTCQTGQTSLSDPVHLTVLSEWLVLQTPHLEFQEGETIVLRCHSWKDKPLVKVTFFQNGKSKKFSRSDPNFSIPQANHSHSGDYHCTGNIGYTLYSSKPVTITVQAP

Kd (Human CD32a H131): 1040 nM and 921 nM and 1070 nM and 1020 nM
Kd (Human CD32a R131): 1380 nM and 1290 nM and 1800 nM and 1130 nM
Kd (Human CD16a V158 [1]): 194 nM
koff (Human CD16a V158 [1]): 0.0201 s⁻¹
kon (Human CD16a V158 [1]): 103000 M⁻¹ s⁻¹
Kd (Human CLEC12A-His [2]): 1.81 nM
koff (Human CLEC12A-His [2]): 0.0014 s⁻¹
kon (Human CLEC12A-His [2]): 776000 M⁻¹ s⁻¹
Kd (mFc-hNKG2D [3]): 602 nM
koff (mFc-hNKG2D [3]): 0.127 s⁻¹
kon (mFc-hNKG2D [3]): 211000 M⁻¹ s⁻¹
Kd (Human CD16a V158 [4]): 180 nM
koff (Human CD16a V158 [4]): 0.0212 s⁻¹
kon (Human CD16a V158 [4]): 118000 M⁻¹ s⁻¹
Kd (Human CLEC12A-His [5]): 1.66 nM
koff (Human CLEC12A-His [5]): 0.00115 s⁻¹
kon (Human CLEC12A-His [5]): 690000 M⁻¹ s⁻¹
Kd (mFc-hNKG2D [6]): 796 nM
koff (mFc-hNKG2D [6]): 0.142 s⁻¹
kon (mFc-hNKG2D [6]): 178000 M⁻¹ s⁻¹
B1: AB0192 TriNKET (other)
chain: EVQLVESGGGVVQPGGSLRLSCAASGFTFNAFGMHWVRQAPGKCLEWVAFISSGSTSIYYANTVKGRFTISRDNSKNTLYLQMNSLRAEDTAVYYCARDGYPTGGAMDYWGQGTSVTVSSGGGGSGGGGSGGGGSGGGGSDIQMTQSPSSLSASVGDRVTITCKASQDIYNYLSWFQQKPGKAPKPLIYRANILVSGVPSRFSGSGSGQDYTFTISSLQPEDIATYYCLQFDAFPFTFGCGTKLEIKGSDKTHTCPPCPAPELLGGPSVFLFPPKPKDTLMISRTPEVTCVVVDVSHEDPEVKFNWYVDGVEVHNAKTKPREEQYNSTYRVVSVLTVLHQDWLNGKEYKCKVSNKALPAPIEKTISKAKGQPREPRVYTLPPCRDELTKNQVSLTCLVKGFYPSDIAVEWESNGQPENNYKTTPPVLVSDGSFTLYSKLTVDKSRWQQGNVFSCSVMHEALHNHYTQKSLSLSPG
heavy: EVQLVESGGGLVKPGGSLRLSCAASGFTFSSYSMNWVRQAPGKGLEWVSSISSSSSYIYYADSVKGRFTISRDNAKNSLYLQMNSLRAEDTAVYYCARGAPIGAAAGWFDPWGQGTLVTVSSASTKGPSVFPLAPSSKSTSGGTAALGCLVKDYFPEPVTVSWNSGALTSGVHTFPAVLQSSGLYSLSSVVTVPSSSLGTQTYICNVNHKPSNTKVDKKVEPKSCDKTHTCPPCPAPELLGGPSVFLFPPKPKDTLMISRTPEVTCVVVDVSHEDPEVKFNWYVDGVEVHNAKTKPREEQYNSTYRVVSVLTVLHQDWLNGKEYKCKVSNKALPAPIEKTISKAKGQPREPQVCTLPPSRDELTENQVSLTCLVKGFYPSDIAVEWESNGQPENNYKTTPPVLDSDGSFFLYSWLTVDKSRWQQGNVFSCSVMHEALHNHYTQKSLSLSPG
light: DIQMTQSPSSVSASVGDRVTITCRASQGISSWLAWYQQKPGKAPKLLIYAASSLQSGVPSRFSGSGSGTDFTLTISSLQPEDFATYYCQQGVSFPRTFGGGTKVEIKRTVAAPSVFIFPPSDEQLKSGTASVVCLLNNFYPREAKVQWKVDNALQSGNSQESVTEQDSKDSTYSLSSTLTLSKADYEKHKVYACEVTHQGLSSPVTKSFNRGEC
notes: the condition stands under assay; also called AB0192 Lot AB0192-005

fold lower KD than F3'-1295 [7]: ~2 fold
Kd (recombinant human FcRn): 1400 nM
Kd (recombinant human CD32b): 6600 nM
B2: F3'-1602 TriNKET (other)
chain: QLQLQESGPGLVKPSETLSLTCTVSGFSLTNYGLHWIRQPPGKCLEWIGVIWSGGKTDYNPSLKSRVTISKDTSKNQFSLKLSSVQAADTAVYYCAKYDYDDSLDYWGQGTLVTVSSGGGGSGGGGSGGGGSGGGGSDIQMTQSPSSLSASVGDRVTITCHASQNINFWLSWYQQKPGKAPKLLIYEASNLHTGVPSRFSGSGSGTRFTLTISSLQPEDIATYYCQQSHSYPLTFGCGTKLEIKGSDKTHTCPPCPAPELLGGPSVFLFPPKPKDTLMISRTPEVTCVVVDVSHEDPEVKFNWYVDGVEVHNAKTKPREEQYNSTYRVVSVLTVLHQDWLNGKEYKCKVSNKALPAPIEKTISKAKGQPREPRVYTLPPCRDELTKNQVSLTCLVKGFYPSDIAVEWESNGQPENNYKTTPPVLVSDGSFTLYSKLTVDKSRWQQGNVFSCSVMHEALHNHYTQKSLSLSPG
heavy: EVQLVESGGGLVKPGGSLRLSCAASGFTFSSYSMNWVRQAPGKGLEWVSSISSSSSYIYYADSVKGRFTISRDNAKNSLYLQMNSLRAEDTAVYYCARGAPIGAAAGWFDPWGQGTLVTVSSASTKGPSVFPLAPSSKSTSGGTAALGCLVKDYFPEPVTVSWNSGALTSGVHTFPAVLQSSGLYSLSSVVTVPSSSLGTQTYICNVNHKPSNTKVDKKVEPKSCDKTHTCPPCPAPELLGGPSVFLFPPKPKDTLMISRTPEVTCVVVDVSHEDPEVKFNWYVDGVEVHNAKTKPREEQYNSTYRVVSVLTVLHQDWLNGKEYKCKVSNKALPAPIEKTISKAKGQPREPQVCTLPPSRDELTENQVSLTCLVKGFYPSDIAVEWESNGQPENNYKTTPPVLDSDGSFFLYSWLTVDKSRWQQGNVFSCSVMHEALHNHYTQKSLSLSPG
light: DIQMTQSPSSVSASVGDRVTITCRASQGISSWLAWYQQKPGKAPKLLIYAASSLQSGVPSRFSGSGSGTDFTLTISSLQPEDFATYYCQQGVSFPRTFGGGTKVEIKRTVAAPSVFIFPPSDEQLKSGTASVVCLLNNFYPREAKVQWKVDNALQSGNSQESVTEQDSKDSTYSLSSTLTLSKADYEKHKVYACEVTHQGLSSPVTKSFNRGEC
notes: CLEC12A scFv-Fc, NKG2D A49MI Fab-Fc, human IgG1 Fc; also called AB0237
